For one substance, Ka results are on record in patent publication US7608262.

The assay addresses recombinant human TNF (human) (UniProt P01375). As to the kind of experiment: binding assays of cA2 and recombinant human TNF (format not described).
Chain of UniProt P01375 (P01375 77-233 limits assumed): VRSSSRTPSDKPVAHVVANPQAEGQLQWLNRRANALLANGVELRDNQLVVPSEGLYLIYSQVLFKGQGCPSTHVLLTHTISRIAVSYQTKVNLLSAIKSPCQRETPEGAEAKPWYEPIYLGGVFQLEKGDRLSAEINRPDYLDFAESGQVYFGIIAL

On to “chimeric A2 (cA2) anti-TNF monoclonal antibody”, for which the Ka was determined as 1.8e+09 M⁻¹.
